We go through two molecules from patent US20120022228A1, “PURIFICATION OF AMPHOTERIC PRODUCTS, OR OF PRODUCTS LIABLE TO BE CONVERTED INTO AMPHOTERIC PRODUCTS” (CENTRE NATIONAL DE LA RECHERCHE SCIENTIFIQUE, priority 2010, published 2012).

What all share (format): physicochemical
The nature of data set [1]: Partition of dipeptides between organic and aqueous phase as a function of percentage of deprotonation of the exchanger (FIG. 4). The following applies: exchanger DEHPA deprotonated to 30%. The text has this: FIG. 4 is a graphic representing the solubility of dipeptides in either an organic or an aqueous phase in function of the percentage of deprotonation of an exchanger dissolved in […]. In abscissae, the percentage of deprotonation of the exchanger is represented; said abscissae are graduated from 0 to 30%. The ordinates represent a partition coefficient between the organic phase and the aqueous phase, said ordinates being graduated from 0 to 1.
The Influence of the percentage of deprotonated exchanger over the CPC purification of dipeptides GG, GY and LV is determined. […]

The nature of data set [2]: Partition coefficient of SF328 evaluated by TLC in different biphasic solvent systems. The method, then: Partition coefficient of SF328 was evaluated by TLC in different biphasic solvent systems. In the elution mode, it is required that the KD value of the compound of interest lies between 0.2 and 5 (preferentially about 1).
A short description of data set [3]: CPC run in elution mode, stability of SF328 in the solvent system. The conditions noted are these: MtBE/CH3CN/BuOH/Water 1% TFA (2:1:2:5, v/v), Example 54. The procedure:
Only the system MtBE/CH3CN/BuOH/Water 1% TFA (2:1:2:5, v/v) was tested. The experimental conditions were: • Rotation speed: 1300 rpm. • Sample injected: 100 mg. • Elution mode: ascending. • Flow rate: 8 ml/min.
This system causes the degradation of SF328.

Peptide text beside a SMILES is read from it.

`CC(C)C[C@H](N)C(=O)N[C@H](C(=O)O)C(C)C` [LV, LeucylValine] (H-Leu-Val-OH): the “peptide extraction (partition organic/aqueous phase)” value in data set [1] was “improvement”.

Take “H-Asp-Glu-Asn-Pro-Val-Val-His-Phe-Phe-Lys-Asn-Ile-Val-Thr-Pro-Arg-Thr-OH (H-DENPVVHFFKNIVTPRT-OH) [SF328]”: the “Evaluation KD” value is on record as “average” in data set [2] (BuOH/Acetic acid/Water (4:1:5, v/v)); “poor” in data set [2] (BuOH/Acetic acid/Water (5:1:4, v/v)); “good” in data set [2] (MtBE/CH3CN/BuOH/Water 1% TFA (2:1:2:5, v/v)); “poor” in data set [2] (MtBE/CH3CN/Water (2:2:3, v/v)); “average” in data set [2] (MtBE/CH3CN/Water (3:2:5, v/v)). Besides, the “Stability in the solvent system” value in data set [3] was “degradation”.
